Changes are numbered by the printed parent chain. Read-outs that look alike come from different tables or passages of the source.
B1: chimeric antibody 032c (antibody, V domains shown)
VH: EVRLEESGGGLVQPGGSMKLSCVVSGFTFRNYWMNWVRQSPERGLEWIAEITLKSNTYATHYAESVKGRFAISRDDSKSSFYLQMNDLRPEDTGIYYCTTFTKVVADWHLDVWGAGTTVTVSS
VL: DVLMTQTPLSLPVNLGDQASISCRSSQNIVHSNGNTYLEWYLQKPGQSPKLLIYKVSNRFSGVPDRFSGSGSGTDFTLRISRVEAEDLGVYYCFQGSHVPFTFGSGTKLEIK
B2: chimeric antibody 050c (antibody, V domains shown)
VH: QIQLVQSGPELKKPGETVKISCKASGYTFTHYSMHWVKQAPGKGLKWMGWINTETAEPTYVDDFKGRFAFSLEASASTAFFQINNLKNEDTATYFCARGGLRQGDYWGQGTTLTVSS
VL: QIVLTQSPPIMSASPGEKVTLTCSATSSVSASYLYWFQQKPGSSPKLWIYSTSNLASGVPARFSGSGSGTSYSLTISNMEPADAASYFCHQWSSYPYTFGGGTKLEIK
B3: chimeric antibody 055c (antibody, V domains shown)
VH: EVKLVESEGGLVQPGDSMKLSCTASGFTFSDYFMTWIRQVPEKGLEWIANVNYDGRSTYYLDSLKSRFIISRDNANNILYLQMSSLKSEDTATYYCAREGSQTPLYAVDYWGQGTSVTVSS
VL: DIVMTQSQKFMSTTVGDRVNITCKASQNVGTAVAWYQQKPGQSPKLLIYLASNRYTGVPDRFTGSGSGTDFTLTVSDMRSEDLADYFCQQYSIYPFTFGSGTKLEIK
B4: chimeric antibody 074c (antibody, V domains shown)
VH: QVQLQQPRAELVKPGASVMLSCKASGYTFSSYWIHWVRQGPGQGLEWIGLIHPNSGNTDCSETFKNKATLTVDTSSSTAYMQLSSLASEDSAVYYCARDGASYDWFVHWGQGTLVTVSA
VL: not shown
B5: chimeric antibody 022c (antibody, V domains shown)
VH: QIQLVQSGPELKKPGETVKISCKASGYTFTDYAMHWVKQAPGKGLKWMGWKNTETGESTYAEDFKGRFAFFLETSASTAYLQINNVKNEDTATYFCARGGYGSNYVMDYWGQGTSVIVSS
VL: DIQMTQSSSSFSVSLGDRVTITCKASEDIYNRLAWYQQKPGNAPRLLISGATSLETGVPSRFSGSGSGKDYTLSITSLQTEDVATYYCQQYWNSPRTFGGGTKLEIK
B6: reference antibody KWAR23 (antibody, V domains shown)
VH: EVQLQQSGAELVKPGASVKLSCTASGFNIKDYYIHWVQQRTEQGLEWIGRIDPEDGETKYAPKFQDKATITADTSSNTAYLHLSSLTSEDTAVYYCARWGAYWGQGTLVTVSS
VL: B2 VL with P9A, T26S, A31S, F37Y, N78S, P81A, A82E, Y97R, G101A, I107L
B7: reference antibody 29-AM4-5 (antibody, V domains shown)
VH: EVQLVESGGGLVQPGGSLRLSCAASGFNISYYFIHWVRQAPGKGLEWVASVYSSFGYTYYADSVKGRFTISADTSKNTAYLQMNSLRAEDTAVYYCARFTFPGLFDGFFGAYLGSLDYWGQGTLVTVSS
VL: DIQMTQSPSSLSASVGDRVTITCRASQSVSSAVAWYQQKPGKAPKLLIYSASSLYSGVPSRFSGSRSGTDFTLTISSLQPEDFATYYCQQAVNWVGALVTFGQGTKVEIK

What was measured:
[1] = target: T1, Fc tagged human SIRPα v2 ECD recombinant protein (human); assay: ELISA
T1 construct: range 1-369; cloned range M1-R369 includes the signal peptide; also called hSIRPα V2
How it was run: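 Purified hybridoma or chimeric antibodies were incubated on antigen-coated plates for 1 hour at 37° C. Bound antibody was detected with HRP-labeled anti-mouse or anti-human IgG (1 hour, 37° C.), then TMB for 15 minutes at room temperature, stopped with 1N HCl. EC₅₀ derived from OD 450 nm.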

[2] = target: T2, chimeric SIRPα of B-hSIRPA mice (IgV domain of human SIRPα); IgC1/C2, transmembrane and intracellular domains … (human; mouse, UniProt P78324 31-149; P97797 151-513, limits assumed); assay: FACS on spleen cells of B-hSIRPA mice, anti-human IgG secondary antibody, gated on mCD11b/mF4/80 double positive monocytes
T2 construct: domain: IgV domain;domain: IgC1/C2, transmembrane and intracellular domains; whole, on cells (mCD11b+ mF4/80+ spleen monocytes); also called B-hSIRPA mice derived primary monocytes
Protocol: The humanized mice express a chimeric SIRPα, comprised of IgV domain of human SIRPα and IgC1/C2, transmembrane and intracellular domains of mouse SIRPα. Briefly spleen cells of B-hSIRPA mice were harvested and incubated with anti-SIRPα chimeric antibodies at 4° C. for 1 hour. After washing, fluorescence labeled anti-human IgG 2nd antibody (Life Technologies) was added and incubated at 4° C. for 1 hour. […] Anti-SIRPα positive staining population in mCD11b and mF4/80 double positive subset was calculated.

[3] = target: T3, biotin labeled soluble human SIRPα v1 ECD recombinant protein (human, UniProt P78324 31-373, biotin labeled); assay: competitive ELISA; competitor 060
T3 construct: extracellular domain
Protocol: (§1) Competitive ELISA assay was used for epitope binning of 9 functional antibodies. Briefly excessive competitor antibody and biotin labeled soluble human SIRPα v1 ECD recombinant protein were co-incubated with ELISA microplate coated antibody. After washing, HRP-SA was added and incubated at 37° C. for 1 hour. Then, […] of TMB solution (Biotechnology) was added. After incubation for 15 minutes at room temperature, the reaction was stopped by the addition of […] of 1N HCl. OD 450 nm was read. Competition ratio was calculated. The antibodies that can compete each other for binding to SIRPα have the similar binding epitope.

[4] = target: T4, Fc tagged human SIRPβ ECD recombinant protein (human, UniProt O00241 30-371); assay: ELISA
T4 construct: range 1-371; cloned range includes the signal peptide; also called hSIRPβ; not shown: human IgG Fc region (hFc) of the pCPC vector
Protocol: (§2) Binding specificity of the purified hybridoma antibodies against SIRP family members was detected by ELISA assay using recombinant proteins of Fc tagged human SIRPα v1 ECD, human SIRPα v2 ECD, human SIRPβ ECD and human SIRPγ ECD. Briefly the antibodies were incubated with ELISA microplate coated antigens at 37° C. for 1 hour. After washing, horseradish peroxidase (HRP) labeled anti-mouse or anti-human IgG 2nd Ab (Sigma) was added and incubated at 37° C. for 1 hour. Then, 100 μl/well of TMB solution (Biotechnology) was added. After incubation for 15 minutes at room temperature, the reaction was stopped by the addition of 50 μl of 1N HCl. OD 450 nm was read and EC₅₀ was calculated. Other than 060 and HEFLB, all of the antibodies as tested can bind with both human SIRPα v1 and SIRPα v2. 060 and HEFLB can bind with human SIRPα v1 but not v2. Other than 055, all of the antibodies as tested can bind with human SIRPβ. In comparison with other known anti-SIRPα antibodies, only 022, 035 and 050 can bind with human SIRPγ weakly.

[5] = target: T5, Fc tagged human SIRPα v1 ECD recombinant protein (human, UniProt P78324 31-370); assay: ELISA
T5 construct: range 1-370; cloned range M1-R370 includes the signal peptide; also called hSIRPα V1; not shown: human IgG Fc region (hFc) of the pCPC vector
Protocol: as §2

[6] = target: T1, Fc tagged human SIRPα v2 ECD …; assay: ELISA; remark: listed apart in the source
Protocol: as §2

[7] = target: T3, biotin labeled soluble human SIRPα v1 …; assay: competitive ELISA; competitor 032
Protocol: as §1

[8] = target: T3, biotin labeled soluble human SIRPα v1 …; assay: competitive ELISA; competitor 074
Protocol: as §1

[9] = target: T3, biotin labeled soluble human SIRPα v1 …; assay: competitive ELISA; competitor HEFLB
Protocol: as §1

Binder	EC50 [1]	Positive Staining Population (% in mCD11b, mF4/80 double positive subset) [2]	binding result [2]	% Competition [3]	EC50 [4]	EC50 [5]	EC50 [6]	% Competition [7]	% Competition [8]	% Competition [9]
B1	0.11 nM	91.5%	–	–	–	–	–	–	–	–
B2	0.1 nM	0.16%	no binding	–	–	–	–	–	–	–
B3	0.11 nM	0.13%	no binding	–	–	–	–	–	–	–
B4	0.14 nM	0.14%	no binding	–	–	–	–	–	–	–
B5	0.11 nM	–	no binding	–	–	–	–	–	–	–
B6	0.09 nM	–	–	5%	0.18 nM	0.17 nM	0.22 nM	82%	1%	27%
B7	0.08 nM	–	–	10%	0.21 nM	0.15 nM	0.2 nM	97%	4%	25%

Reference: US20210347908A1 (ELPISCIENCE SUZHOU BIOPHARMA, published 2021)
